This is an account of results in US20040156847A1.

The experiment concerns the target human CD30 expressed on human peripheral blood eosinophils (human) (UniProt P28908). Description: cell-based or functional assay.
Chain of UniProt P28908 (P28908 19-595): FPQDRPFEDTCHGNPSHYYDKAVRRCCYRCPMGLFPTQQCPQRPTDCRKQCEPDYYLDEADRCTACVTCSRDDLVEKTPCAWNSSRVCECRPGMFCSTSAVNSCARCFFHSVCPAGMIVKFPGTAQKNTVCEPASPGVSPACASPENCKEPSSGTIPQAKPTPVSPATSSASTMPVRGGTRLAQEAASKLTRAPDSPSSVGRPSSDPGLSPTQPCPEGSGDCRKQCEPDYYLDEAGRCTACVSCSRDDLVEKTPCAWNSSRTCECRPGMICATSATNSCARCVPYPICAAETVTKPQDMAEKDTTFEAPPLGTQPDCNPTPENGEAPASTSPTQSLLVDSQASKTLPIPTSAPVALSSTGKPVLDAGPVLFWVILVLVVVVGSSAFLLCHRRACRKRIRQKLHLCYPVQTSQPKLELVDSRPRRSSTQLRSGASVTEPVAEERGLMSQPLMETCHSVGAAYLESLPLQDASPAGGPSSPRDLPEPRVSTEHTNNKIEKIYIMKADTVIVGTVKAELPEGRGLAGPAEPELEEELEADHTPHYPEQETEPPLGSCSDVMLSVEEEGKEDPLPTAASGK

For “anti-mouse CD30 monoclonal antibody YMSM636.4.10 (Serotec Ltd, Oxford UK)”, the apoptosis of human peripheral blood eosinophils after 4 hours, antibody immobilized at 10 µg/ml was determined as 30%.

Take “mouse anti-human CD30 monoclonal antibody HRS-4 (Immunotech, Marseilles, France)”: the apoptosis of human peripheral blood eosinophils (FITC-Annexin V, flow cytometry), antibody immobilized at 1 µg/ml, 4 hours worked out at 16.3%; the apoptosis of human peripheral blood eosinophils (FITC-Annexin V, flow cytometry), antibody immobilized at 10 µg/ml, 4 hours was determined as 78.8%; the apoptosis of human peripheral blood eosinophils after 1 hour, antibody immobilized at 10 µg/ml amounted to 50%; the apoptosis of human peripheral blood eosinophils after 1 hour, antibody immobilized at 10 µg/ml (comparison with anti-Fas CH-11) was 50%. The substance further had an apoptosis of human peripheral blood eosinophils after 4 hours, antibody immobilized at 10 µg/ml of 70%; an apoptosis of human peripheral blood eosinophils after 4 hours, antibody immobilized at 10 µg/ml (comparison with anti-Fas CH-11) of 70%; an apoptosis of human peripheral blood eosinophils after 4 hours, antibody immobilized on polystyrene microbeads of 27.9%.

The substance “mouse anti-human CD30 monoclonal antibody Ber-H8 (PharMingen, San Diego, Calif.)” displayed an apoptosis of human peripheral blood eosinophils (FITC-Annexin V, flow cytometry), antibody immobilized at 0.01 µg/ml, 4 hours of 7.8%; an apoptosis of human peripheral blood eosinophils (FITC-Annexin V, flow cytometry), antibody immobilized at 0.1 µg/ml, 4 hours of 11.4%; an apoptosis of human peripheral blood eosinophils (FITC-Annexin V, flow cytometry), antibody immobilized at 1 µg/ml, 4 hours of 44.8%; an apoptosis of human peripheral blood eosinophils (FITC-Annexin V, flow cytometry), antibody immobilized at 10 µg/ml, 4 hours of 71.9%. The apoptosis of human peripheral blood eosinophils after 1 hour, antibody immobilized at 10 µg/ml turned out to be 50%; the apoptosis of human peripheral blood eosinophils after 1 hour, antibody immobilized at 10 µg/ml (comparison with anti-Fas CH-11) turned out to be 50%; the apoptosis of human peripheral blood eosinophils after 4 hours, antibody immobilized at 10 µg/ml stood at 70%; the apoptosis of human peripheral blood eosinophils after 4 hours, antibody immobilized at 10 µg/ml (comparison with anti-Fas CH-11) was determined as 70%. In addition, the apoptosis of human peripheral blood eosinophils after 4 hours, antibody immobilized on polystyrene microbeads was determined as 44%.

“recombinant mouse CD30 ligand (R&D Systems Inc. Minneapolis, USA) (from UniProt P32972 68-239)” came in with an apoptosis of human peripheral blood eosinophils after 4 hours, ligand immobilized at 10 µg/ml of 28% and an apoptosis of human peripheral blood eosinophils after 4 hours, ligand immobilized at 100 µg/ml of 35%.
